Experimental data as given in the supplement of paper PMC7877785.
± gives the uncertainty stated by the source.

Experiment: self-splicing fitness, log relative to wild type (ln ratio); higher = more splicing; Tetrahymena group I intron in knt gene, E. coli kanamycin selection, DiMSum; sequences stand for … in CUCUCU…GGAGGGAAAAGUUAUCAGGCAUGCACCUGGUAGCUAGUCUUUAAACCAAUAGAUUGCAUCGGUUUAAAAGGCAAGACCGUCAAAUUGCGGGAAAGGGGUCAACAGCCGUUCAGUACCAAGUCUCAGGGGAAACUUUGAGAUGGCCUUGCAAAGGGUAUGGUAAUAAGCUGACGGACAUGGUCCUAACCACGCAGCCAAGUCCUAAGUCAACAGAUCUUCUGUUGAUAUGGAUGCAGUUCACAGACUAAAUGUCGGUCGGGGAAGAUGUAUUCUUCUCAUAAGAUAUAGUCGGACCUCUCCUUAAUGGGAGCUAGCGGAUGAAGUGAUGCAACACUGGAGCCGCUGGGAACUAAUUUGUAUGCGAAAGUAUAUUGAUUAGUUUUGGAGUACUCGUGGUCG
Outline: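 DiMSum derived fitness as the error-weighted combination of fold changes across replicates, kanamycin versus no kanamycin, normalised to wild type. E. coli BL21(DE3) held the library, which randomised all eight P1ex-region intron nucleotides within the knt kanamycin-resistance gene on pET-22b(+). Six replicate transformations grew overnight at 37°C or 30°C on LB agar with or without 25 μg/mL kanamycin, also containing 100 μg/mL carbenicillin, 50 μM IPTG and 0.2% rhamnose, and pooled colonies were amplicon-sequenced on an Illumina HiSeq 2500.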

Row | Sequence | self-splicing fitness (ln) (30 °C) | self-splicing fitness (ln) (37 °C)
1 | CGUAAGCAAUAUUACGGCUA | -2.35 ± 0.41 | -1.48 ± 0.33
2 | UAAUAGCAAUAUUACGUUGU | -3.53 ± 0.18 | -1.98 ± 0.19
3 | CGCAAGCAAUAUUACGCAGU | -3.23 ± 0.17 | -2.62 ± 0.21
4 | GCGAAGCAAUAUUACGUUGA | -2.59 ± 0.15 | -2.33 ± 0.14
5 | GUUGAGCAAUAUUACGGACA | -0.932 ± 0.47 | -1.32 ± 0.43
6 | UUCCAGCAAUAUUACGCGUU | -2.35 ± 0.1 | -1.6 ± 0.1
7 | GGACAGCAAUAUUACGUGGC | -3.02 ± 0.26 | -0.384 ± 0.16
8 | GAUCAGCAAUAUUACGUACG | -1.5 ± 0.14 | -0.586 ± 0.14
9 | GAUGAGCAAUAUUACGAGAU |  | -3.21 ± 0.47
10 | UAAUAGCAAUAUUACGGGUC | -3.33 ± 0.3 | -1.58 ± 0.28
11 | GCCUAGCAAUAUUACGACCA | -1.08 ± 0.14 | -1.34 ± 0.13
12 | GGAUAGCAAUAUUACGGUUU | -1.22 ± 0.093 | -0.329 ± 0.11
13 | UGAGAGCAAUAUUACGUAGG | -2.48 ± 0.35 | -1.12 ± 0.41
14 | UCACAGCAAUAUUACGAUGU | -4.15 ± 0.29 | -1.77 ± 0.17
15 | AGGAAGCAAUAUUACGGCAU | -1.28 ± 0.13 | -0.506 ± 0.15
16 | CAGAAGCAAUAUUACGACGU | -1.53 ± 0.12 | -0.618 ± 0.12
17 | UCCUAGCAAUAUUACGCUGA | -1.02 ± 0.11 | -0.876 ± 0.12
18 | UUUUAGCAAUAUUACGCUGA | -1.89 ± 0.36 | -2.31 ± 0.39
19 | UAACAGCAAUAUUACGAAUC | -2.67 ± 0.18 | -2.66 ± 0.29

Row | Sequence | self-splicing fitness (ln) (30 °C) | self-splicing fitness (ln) (37 °C)
20 | CAGCAGCAAUAUUACGUCCA | -2.61 ± 0.3 | -0.781 ± 0.22
21 | CAUAAGCAAUAUUACGAGAU | -3.53 ± 0.15 | -3.51 ± 0.23
22 | GUCUAGCAAUAUUACGUGAU | -1.04 ± 0.09 | -0.766 ± 0.1
23 | AACAAGCAAUAUUACGUAUG | -3.33 ± 0.12 | -1.85 ± 0.1
24 | GCGGAGCAAUAUUACGAACU |  | -0.902 ± 0.47
25 | CUGCAGCAAUAUUACGGCCA | -1.25 ± 0.34 | -0.578 ± 0.24
26 | UCGGAGCAAUAUUACGGAUA | -2.51 ± 0.35 | -1.96 ± 0.29
27 | CAAUAGCAAUAUUACGCGAU | -3.99 ± 0.23 | -2.92 ± 0.29
28 | ACUCAGCAAUAUUACGAACA | -1.16 ± 0.076 | -0.892 ± 0.09
29 | GUUAAGCAAUAUUACGAUAA | -1.48 ± 0.18 | -0.923 ± 0.2
30 | GCCUAGCAAUAUUACGGGGA | -0.34 ± 0.067 | -0.0121 ± 0.09
31 | GCUAAGCAAUAUUACGUAGA | -0.845 ± 0.055 | -0.223 ± 0.069
32 | GUGGAGCAAUAUUACGCCGU | 0.631 ± 0.42 | -1.15 ± 0.37
33 | UGUGAGCAAUAUUACGGAAC |  | -1.72 ± 0.48
34 | CGUUAGCAAUAUUACGGAGC | -3.81 ± 0.47 | -1.35 ± 0.47
35 | ACUGAGCAAUAUUACGCACG | -2.17 ± 0.15 | -1.11 ± 0.17
36 | UAUGAGCAAUAUUACGGAUC | -3.84 ± 0.44 | -2.19 ± 0.41
37 | GCCAAGCAAUAUUACGUUUU | -2.86 ± 0.085 | -1.3 ± 0.093
38 | CCAGAGCAAUAUUACGACAG | -0.807 ± 0.094 | -0.408 ± 0.15
